In patent US7754216B2, “Method of treating multiple sclerosis with anti-K6 antibody” (Mayo Foundation for Medical Education and Research, priority 2002, dated 2010):

Tests used:
K6 mRNA in spinal cord = K6 mRNA in spinal cord after kainic acid excitotoxic injury; type: in vivo, rat; conditions: three days after intraperitoneal KA
Source text: Levels of K6 mRNA in adult rat spinal cord were increased in both white and gray matter following kainic acid (KA)-induced excitotoxic injury. Dark-field photomicrographs (FIG. 1) show the autoradiographic localization of K6 mRNA in a transverse section through the spinal cord of a control rat, and in parallel sections of paired experimental rats at 3 and 7 days after intraperitoneal injection of KA. By three days after KA treatment, K6 mRNA was 2-fold higher in the white matter and 1.5-fold higher in the dorsal horn (DH) and ventral horn (VH) of the spinal cord gray matter, compared to controls (P<0.05).

[1] = target: T1, recombinant rat myelin oligodendrocyte glycoprotein (αMOG), extracellular domain, amino acids 1-125 (UniProt Q63345)
T1 sequence: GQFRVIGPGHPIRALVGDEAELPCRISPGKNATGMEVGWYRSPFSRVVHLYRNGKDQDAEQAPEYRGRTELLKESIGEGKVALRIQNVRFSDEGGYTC

[2] = target: rat myelin basic protein (MBP) (UniProt P02688)
Chain of UniProt P02688 (P02688 2-195): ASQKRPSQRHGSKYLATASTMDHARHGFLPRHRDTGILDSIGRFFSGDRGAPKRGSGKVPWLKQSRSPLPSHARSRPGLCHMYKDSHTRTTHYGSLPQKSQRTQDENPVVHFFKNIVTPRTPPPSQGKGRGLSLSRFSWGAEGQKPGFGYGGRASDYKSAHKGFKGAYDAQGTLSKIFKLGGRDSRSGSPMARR

C=C(C)[C@H]1CN[C@H](C(=O)O)[C@H]1CC(=O)O [KA, kainic acid]
K6 mRNA in dorsal horn (DH) and ventral horn (VH) gray matter compared to controls (K6 mRNA in spinal cord): 1.5 fold
K6 mRNA in spinal cord white matter compared to controls (K6 mRNA in spinal cord): 2 fold

recombinant rat K6 (r-K6)
degradation on 16.5% Tricine SDS-PAGE [1]: αMOG was partially degraded by 1 hour after addition of K6, and was completely degraded by 4 hours
degradation on 16.5% Tricine SDS-PAGE [2]: MBP was partially degraded by 10 minutes after addition of K6, and showed much greater levels of degradation at 30 minutes and 60 minutes

K6 (recombinant; species not stated where used)
degradation on 7.5% SDS-PAGE (collagen type I): Collagen type I was degraded within 5 minutes of K6 addition
degradation on 7.5% SDS-PAGE (fibronectin): Fibronectin was partially degraded within 1 hour of K6 addition and was completely degraded by 24 hours
degradation on 7.5% SDS-PAGE (laminin): Laminin was partially degraded by one hour after K6 addition, and was completely degraded by 16 hours
